Experimental findings from US10253086B2, “CD20 therapies, CD22 therapies, and combination therapies with a CD19 chimeric antigen receptor (CAR)-expressing cell” (Novartis AG, priority 2015, dated 2019) are described below.

In assay [1] the test system is CD22. In words: NFAT assay of CD22 CAR in JNL cells on antigen-coated plates. Particulars: for function in NFAT assay: plates coated with CD22-FL-Fc, CD22-D567-Fc, CD22-D67. In kind it is cell-based, human. The method, then:
Several CD22 CAR constructs were functionally validated in an NFAT assay. Briefly the experiments were performed as follows. A lentiviral vector (pELPS) carrying a nucleic acid, encoding a CD22 CAR with a CD22-binding scFv domain was introduced by electroporation into a Jurkat T cell line modified to express luciferase under the control of an NFAT response element (JNL). The cells were cultured and allowed to express the CAR construct. The electroporated cells were applied to a plate coated with the target antigen (CD22). Detection of luciferase signal in the coated plate was indicative of binding activity of the CD22 CAR to its antigen, leading to activation of the T cells and expression of luciferase.
The results also indicate that the different scFvs compete with m971 to different extents.
FIG. 72 is a graph showing the activation (in RLU) of several CD22 CAR-expressing JNL cells including CD22-57, CD22-58, CD22-59, CD22-60, CD22-61, CD22-62, and CD22-63, the scFv sequences of which are provided herein. Three different target proteins (CD22-FL-Fc, CD22-D567-Fc, and CD22-D67) were used to coat the tissue culture plates; a negative control (Fc) was also included. A mesothelin binding CAR (Meso-G07) was used as a negative control. CD22-12 and CD22-53 were used as positive controls. […] Domain mapping was performed on CD22 binding domains. Three different forms of antigens were used: CD22 full-length with all 7 external domains, Domain567 (in which domains 1-4 were deleted) and Domain67 (in which domains 1-5 were deleted). While not wishing to be bound by theory, it appears that the binding of various CD22 clones maps to the epitopes illustrated in FIG. 75.
Two scFvs, named CD22-64 and CD22-65, were produced by affinity maturation of hCD22-12. CAR constructs containing these scFvs were tested for activity in an NFAT assay as described above. […] The bars in the figure represent, from left to right, CD22 full length-Fc; CD22 D567-Fc; and an Fc only negative control used for coating of the plates.

For assay [2], the system named is Raji-Luc and Daudi-Luc. Put plainly: IFN-gamma and IL-2 secretion by CD22 CAR primary T cells. Type of assay: cell-based, human. Particulars: E:T 10 to 1, 20-hr co-culture. On the procedure:
CD22 CAR constructs were also tested for the ability to promote secretion of IFN-gamma and IL-2. Briefly, transduced primary T cells from healthy donors expressing the different CD22 CARs were co-cultured with the CD22-positive target cells Raji-Luc and Daudi-Luc as well as the negative control K562-Luc. T cells and target cell were cultured in an effector-to-target cell ratio (E:T) of 10 to 1. Supernatants were harvested after 20-hr co-culture. […] Similar results were observed when Nalm6-Luc, Pfeiffer-Luc, and K562-CD22-Luc, and SEM-Luc cells were tested (data not shown). Minimal IFN-gamma secretion was observed when the K562-Luc negative control cell line was tested (bottom panel).

The target in assay [3] is recombinant human CD22-Fc (Homo sapiens, UniProt P20273). Put plainly: Surface expression of CD22 CAR in primary human T-cells (Protein-L, rhCD22-Fc). Type of assay: cell-based. Particulars: day 10, flow cytometry. On the procedure:
Primary human T-cells were activated with anti-CD3/antiCD28 stimulatory beads on day 0, followed by lentiviral transduction of specified CAR constructs on day 1. Cells were expanded in vitro until day, 10 at which point they were analyzed by flow cytometry for surface expression of CAR. Two different approaches were utilized to determine surface expression of CAR: Protein-L-biotin followed by streptavidin-PE, and recombinant human CD22-Fc followed by anti-Fc-alexafluor 488. […] CD22 CAR m971 served as a positive control for binding both Protein-L and hrCD22-Fc, and Isotype CAR with no specificity (anti-gH) served as a positive control for Protein-L. T cells expressing no CAR were used as a negative control.
(In general: In flow cytometry, cells or beads pass a laser one at a time.)

The subject of assay [4] is Raji, SEM, K562-hCD22, Daudi, and Nalm6. Put plainly: Primary T-cell tumor target killing assay. In kind it is cell-based, human. Particulars: CD22 expressing luciferase target cell lines. An excerpt: Primary T-cells activated and transduced as described above were mixed with target cell lines stably expressing luciferase at the ratios indicated (FIG. 20A-20F). […] Untransduced T-cells (UTD) lacked the ability to kill target cell lines.

B1: CD22-57: human CD22 scFv SEQ ID NO 132 (protein, listed as Homo sapiens)
scFv: EVQLQQSGPGLVKPSQTLSLTCAISGDSVSNNNAAWNWIRQSPSRGLEWLGRTYHRSTWYNDYVGSVKSRITINPDTSKNQFSLQLNSVTPEDTAVYYCARETDYGDYGAFDIWGQGTTVTVSSGGGGSGGGGSGGGGSQSALTQPASVSGSPGQSITISCTGSRNDIGAYESVSWYQQHPGNAPKLIIHGVNNRPSGVFDRFSVSQSGNTASLTISGLQAEDEADYYCSSHTTTSTLYVFGTGTKVTVLG
As for B1, in assay [1], the “function in NFAT assay” value was “functional”.

B2: CD22-59: human CD22 scFv SEQ ID NO 134 (protein, listed as Homo sapiens)
scFv: EVQLQQSGPGLVKPSQTLSLTCAISGDSVLSNSDTWNWIRQSPSRGLEWLGRTYHRSTWYDDYASSVRGRVSINVDTSKNQYSLQLNAVTPEDTGVYYCARDRLQDGNSWSDAFDVWGQGTMVTVSSGGGGSGGGGSGGGGSQSALTQPASVSGSPGQSITISCTGSSSDIGGFNYVSWYQQHAGEAPKLMIYEVTNRPSGVSDRFSGSKSDNTASLTISGLQAEDEADYYCSSYASGSPLYVFGTGTKVTVLG
Take B2: the “function in NFAT assay” value in assay [1] was “functional”.

B3: CD22-53: human CD22 CAR, scFv SEQ ID NO 131 (protein)
scFv: EVQLQQSGPGLVKPSQTLSLTCAISGDSVSSNSAAWNWIRQSPSRGLEWLGRTYYRSKWYSDYAVSVKSRITINPDTSKNQFSLQLNSVTPEDTAVYYCARDPYDFWSGYPDAFDIWGQGTMVTVSSGGGGSGGGGSGGGGSQSALTQPASVSGSPGQSITISCTGTSSDVGGYNYVSWYQQHPGKAPKVIISEVNNRPSGVSHRFSGSKSGNTASLTISGLQAEDEADYFCSSYTSGRTLYVFGTGSKVTVLG
With B3, the “antigen binding / activation (RLU) vs m971” value in assay [1] (with and without m971 scFv competitor) was “bind the antigen approximately as well as the m971 positive control”. In addition, in assay [2], the IFN-gamma secretion entry is given as “induced IFN-gamma secretion” and the “relative amount of IFN-gamma” value was “highest amounts”.

B4: CD22-58: human CD22 scFv SEQ ID NO 133 (protein, listed as Homo sapiens)
scFv: EVQLQQSGPGLVNPSQTLSITCAISGDSVSSNSAAWNWIRQSPSRGLEWLGRTFYRSKWYNDYAVSVKGRITISPDTSKNQFSLQLNSVTPEDTAVYYCAGGDYYYGLDVWGQGTTVTVSSGGGGSGGGGSGGGGSQSALTQPASVSGSPGQSITISCTGSSSDVGGYNSVSWYQQHPGKAPKLMIYEVINRPSGVSHRFSGSKSGNTASLTISGLQAEDEADYYCSSYTSSSTYVFGTGTKVTVLG
As for B4, the “function in NFAT assay” value in assay [1] is “functional”.

B5: CD22-60: human CD22 scFv SEQ ID NO 135 (protein, listed as Homo sapiens)
scFv: EVQLQQSGPGLVKPSQTLSLTCAISGDSVLSNSDTWNWIRQSPSRGLEWLGRTYHRSTWYDDYASSVRGRVSINVDTSKNQYSLQLNAVTPEDTGVYYCARDRLQDGNSWSDAFDVWGQGTMVTVSSGGGGSGGGGSGSGGSQSALTQPASVSGSPGQSITFSCTGTSSDIGGYNYVSWYQQHPGKAPKLMIYEVSNRPSGVSNRFSGTKSGNTASLTISGLQAEDEADYYCSSYTSSSTLYVFGTGTKLTVLG
In the case of B5, in assay [1], the “function in NFAT assay” value was “functional”.

B6: CD22-61: human CD22 scFv SEQ ID NO 136 (protein, listed as Homo sapiens)
scFv: QVQLQESGPGLVKPSQTLSLTCAISGDSVLSNSDTWNWIRQSPSRGLEWLGRTYHRSTWYDDYASSVRGRVSINVDTSKNQYSLQLNAVTPEDTGVYYCARDRLQDGNSWSDAFDVWGQGTMVTVSSGGGGSGGGGSGSGGSQSALTQPASVSGSPGQSITISCTGTSSDVGGYNYVSWYQQHPGKAPKLMIYEVSNRPSGVSNRFSGSKSGNTASLTISGLQAEDEADYYCSSYTSSSTLYVFGTGTKVTVLG
In the case of B6, the “function in NFAT assay” value in assay [1] was “functional”.

B7: CD22-62: human CD22 scFv SEQ ID NO 137 (protein, listed as Homo sapiens)
scFv: EVQLQQSGPGLVKPSQTLSLTCAISGDSVLSNSDTWNWIRQSPSRGLEWLGRTYHRSTWYDDYASSVRGRVSINVDTSKNQYSLQLNAVTPEDTGVYYCARDRLQDGNSWSDAFDVWGQGTMVTVSSGGGGSGGGGSGGGGSQSALTQPASVSGSPGQSITISCTGTSSDVGGYNYVSWYQQHPGKAPKLMIYDVSNRPSGVSNRFSGSKSGNTASLTISGLQAEDEADYYCSSYTSSSTLYVFGTGTKVTVLG
On to B7, for which the “function in NFAT assay” value in assay [1] is reported as “functional”.

B8: CD22-63: human CD22 scFv SEQ ID NO 138 (protein, listed as Homo sapiens)
scFv: EVQLQQSGPGLVKPSQTLSLTCAISGDSVLSNSDTWNWIRQSPSRGLEWLGRTYHRSTWYDDYASSVRGRVSINVDTSKNQYSLQLNAVTPEDTGVYYCARDRLQDGNSWSDAFDVWGQGTMVTVSSGGGGSGGGGSGGGGSQSALTQPASVSGSPGQSITISCTGTSSDVGGYNYVSWYQQHPGKAPKLMIYEVSNRPSGVSNRFSGSKSGNTASLTISGLQAEDEADYYCSSYTSSSTLYIFGTGTKVTVLG
Regarding B8, the “function in NFAT assay” value in assay [1] is recorded as “functional”.

B9: hCD22-2: human CD22 CAR (protein)
scFv: EVQLQQSGPGLVKPSQTLSLTCAISGDSVSSNSAAWNWIRQSPSRGLEWLGRTYYRSKWYNDYAVSVKSRITINPDTSKNQFSLQLNSVTPEDTAVYYCARDLGWIAVAGTFDYWGQGTLVTVSSGGGGSGGGGSGGGGSQSALTQPASVSGSPGQSITISCTGTSSDVGGYNYVSWYQQHPGKAPKLMIYDVSKRPSGVSNRFSGSKSGNTASLTISGLQAEDEADYYCSSYTSSSLNHVFGTGTKVTVL
B9: in assay [3], the “surface expression of CAR” value was “positive surface expression”. In assay [4], the target cell killing result is “dose-dependent target cell killing”.

B10: hCD22-10: human CD22 CAR (protein)
scFv: EVQLQQSGPGLVKPSQTLSLTCAISGDSVLSNSDTWNWIRQSPSRGLEWLGRTYHRSTWYDDYASSVRGRVSINVDTSKNQYSLQLNAVTPEDTGVYYCARDRLQDGNSWSDAFDVWGQGTMVTVSSGGGGSGGGGSGGGGSQSALTQPASVSGSPGQSITISCTGTSSDVGGYNYVSWYQQHPGKAPKLMIYDVSNRPSGVSNRFSGSKSGNTASLTISGLQAEDEADYYCSSYTSSSTLVYVFGTGTKVTVL
Take B10: the “surface expression of CAR” value in assay [3] is “positive surface expression”. Further, in assay [4], the target cell killing entry was “dose-dependent target cell killing”.

B11: hCD22-5: human CD22 CAR (protein)
scFv: EVQLVESGGGLVQPGRSLRLSCAASGFTFDDYAMHWVRQAPGKGLEWVSGISWNSGSIGYADSVKGRFTISRDNAKNSLYLQMNSLRAEDTALYYCAKDKGGGYYDFWSGSDYWGQGTLVTVSSGGGGSGGGGSGGGGSSSELTQDPAVSVALGQTVRITCQGDSLRSYYASWYQQKPGQAPVLVIYGKNNRPSGIPDRFSGSSSGNTASLTITGAQAEDEADYYCNSRDSSGWVFGGGTKLTVL
As to B11, the “surface expression of CAR” value in assay [3] is on record as “positive surface expression”. In addition, in assay [4], the target cell killing result was “dose-dependent target cell killing”.

B12: hCD22-31: human CD22 CAR (protein)
scFv: QVQLVQSGAEVKKPGASVKVSCKASGYTFTSYDINWVRQATGQGLEWMGWMNPNSGNTGYAQKFQGRVTMTRNTSISTAYMELSSLRSEDTAVYYCARGDSNYWSYYGMDVWGQGTLVTVSSGGGGSGGGGSGGGGSGGGGSQSVLTQPRSVSGSPGQSVTISCTGTSSDVGGYNYVSWYQQHPGEAPKLIIYDADKRPSGISNRFSSGKSGNTASLTISGLQVEDEADYYCCSYAGGSTWVFGGGTKVTVL
B12: in assay [3], the “surface expression of CAR” value was “positive surface expression”. Moreover, the target cell killing result in assay [4] is given as “dose-dependent target cell killing”.
